Laboratory results: patent US12338277

Key:
Experiment in all cases: cell-based or functional assay
[1] = target: HIV-1 envelope of pseudovirus 0815.v3.c3 (HIV-1)
[2] = target: HIV-1 envelope of pseudovirus CAAN5342.A2 (HIV-1)
[3] = target: HIV-1 Env of pseudovirus X2088_c9 (HIV-1)
[4] = target: HIV-1 Env of pseudovirus T250-4 (HIV-1)
[5] = target: HIV-1 envelope glycoprotein of pseudovirus 235-47 (clade CRF02_AG) (HIV-1)
[6] = target: HIV-1 envelope glycoprotein of pseudovirus TRJO4551.58 (clade B) (HIV-1)
[7] = target: HIV-1 envelope glycoprotein of pseudovirus T251-18 (clade CRF02_AG) (HIV-1)
[8] = target: HIV-1 envelope glycoprotein of pseudovirus CNE19 (clade BC) (HIV-1)
[9] = target: HIV-1 envelope glycoprotein of pseudovirus ZM233M.PB6 (clade C) (HIV-1)
[10] = target: HIV-1 envelope glycoprotein of pseudovirus QH0692.42 (clade B) (HIV-1)
[11] = target: HIV-1 envelope glycoprotein of pseudovirus X1193 c1 (clade G) (HIV-1)
[12] = target: HIV-1 envelope glycoprotein of pseudovirus ZM135M.PL10a (clade C) (HIV-1)
[13] = target: HIV-1 envelope glycoprotein of pseudovirus T278-50 (clade CRF02 AG) (HIV-1)
[14] = target: HIV-1 envelope glycoprotein of pseudovirus 1054_07_TC4_1499 (clade B (T/F)) (HIV-1)
[15] = target: HIV-1 envelope glycoprotein of pseudovirus 211-9 (clade CRF02_AG) (HIV-1)
[16] = target: HIV-1 envelope glycoprotein of pseudovirus CNE52 (clade BC) (HIV-1)
[17] = target: HIV-1 envelope glycoprotein of pseudovirus RHPA4259.7 (clade B) (HIV-1)
[18] = target: HIV-1 envelope glycoprotein of pseudovirus CAP45.2.00.G3 (clade C) (HIV-1)
[19] = target: HIV-1 envelope glycoprotein of pseudovirus 3365.v2.c2 (clade A) (HIV-1)
[20] = target: HIV-1 envelope glycoprotein of pseudovirus 928-28 (clade CRF02_AG) (HIV-1)
[21] = target: HIV-1 envelope glycoprotein of pseudovirus CNE58 (clade BC) (HIV-1)

Chain of 10-1074 (antibody) (VH): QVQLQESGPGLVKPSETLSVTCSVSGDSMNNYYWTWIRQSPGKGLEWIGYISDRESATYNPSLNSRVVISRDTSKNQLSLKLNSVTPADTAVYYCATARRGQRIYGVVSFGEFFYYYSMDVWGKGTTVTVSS
Chain of 10-1074 (antibody) (V domain): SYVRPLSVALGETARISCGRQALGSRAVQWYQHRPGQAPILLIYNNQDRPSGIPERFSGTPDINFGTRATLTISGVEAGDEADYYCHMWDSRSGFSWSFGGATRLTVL
Chain of 10-996 (antibody) (VH): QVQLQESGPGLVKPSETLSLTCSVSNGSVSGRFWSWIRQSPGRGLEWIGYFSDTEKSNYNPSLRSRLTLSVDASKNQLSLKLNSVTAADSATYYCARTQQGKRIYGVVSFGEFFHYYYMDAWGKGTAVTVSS
Chain of 10-996 (antibody) (VL): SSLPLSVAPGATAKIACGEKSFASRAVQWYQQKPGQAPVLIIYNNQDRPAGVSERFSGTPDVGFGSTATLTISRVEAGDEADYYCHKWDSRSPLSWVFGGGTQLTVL

Row | Substance | IC50 (TZM-bl neutralization) [1] | IC50 (TZM-bl neutralization) [2] | IC80 (TZM-bl neutralization) [3] | IC80 (TZM-bl neutralization) [4] | IC50 in the TZM-bl neutralization assay [5] | IC50 in the TZM-bl neutralization assay [6] | IC50 in the TZM-bl neutralization assay [7] | IC50 in the TZM-bl neutralization assay [8] | IC50 in the TZM-bl neutralization assay [9] | IC50 in the TZM-bl neutralization assay [10] | IC50 in the TZM-bl neutralization assay [11] | IC50 in the TZM-bl neutralization assay [12] | IC50 in the TZM-bl neutralization assay [13] | IC50 in the TZM-bl neutralization assay [14] | IC50 in the TZM-bl neutralization assay [15] | IC50 in the TZM-bl neutralization assay [16] | IC50 in the TZM-bl neutralization assay [17] | IC50 in the TZM-bl neutralization assay [18] | IC50 in the TZM-bl neutralization assay [19] | IC50 in the TZM-bl neutralization assay [20] | other results
1 | 10-996 (antibody) | 0.061 µg/mL | 13 ng/mL | 0.014 µg/mL | 5 ng/mL | – | – | – | – | – | – | – | – | – | – | – | – | – | – | – | – | –
2 | PGT121 (antibody) | – | – | – | – | 1.68 µg/mL | 35.3 µg/mL | > 50 µg/mL | 0.189 µg/mL | 8.98 µg/mL | 8.54 µg/mL | 0.202 µg/mL | 5.88 µg/mL | > 50 µg/mL | 0.696 µg/mL | 8.84 µg/mL | 32.9 µg/mL | 0.054 µg/mL | 6.54 µg/mL | 7.35 µg/mL | > 50 µg/mL | IC50 in the TZM-bl neutralization assay [21]: > 50 µg/mL
3 | 10-1074 (antibody) | 0.03 µg/mL | 7 ng/mL | 0.014 µg/mL | 5 ng/mL | 0.163 µg/mL | 0.634 µg/mL | 7.39 µg/mL | 50 µg/mL | 0.349 µg/mL | 0.929 µg/mL | 0.475 µg/mL | 0.367 µg/mL | 18.3 µg/mL | 0.563 µg/mL | 0.425 µg/mL | 13.1 µg/mL | 0.118 µg/mL | > 50 µg/mL | 0.45 µg/mL | 4.7 µg/mL | IC50 in the TZM-bl neutralization assay [21]: 0.968 µg/mL
